Common to all, as to assay: EMSA
Conditions in all cases: EMSA: 40 mM HEPES pH 7.9, 300 mM KCl, 10% glycerol, 8% Ficoll, 2 mM EDTA, 0.2 mM MgCl2, 1 mM DTT, 600 ug BSA, 30 ug poly(dI-dC), 30 ul, 20 min, room …

For data set [1], the target named is T1, His-TRF1 T273D T273D (Homo sapiens) (UniProt P54274).
T1 sequence: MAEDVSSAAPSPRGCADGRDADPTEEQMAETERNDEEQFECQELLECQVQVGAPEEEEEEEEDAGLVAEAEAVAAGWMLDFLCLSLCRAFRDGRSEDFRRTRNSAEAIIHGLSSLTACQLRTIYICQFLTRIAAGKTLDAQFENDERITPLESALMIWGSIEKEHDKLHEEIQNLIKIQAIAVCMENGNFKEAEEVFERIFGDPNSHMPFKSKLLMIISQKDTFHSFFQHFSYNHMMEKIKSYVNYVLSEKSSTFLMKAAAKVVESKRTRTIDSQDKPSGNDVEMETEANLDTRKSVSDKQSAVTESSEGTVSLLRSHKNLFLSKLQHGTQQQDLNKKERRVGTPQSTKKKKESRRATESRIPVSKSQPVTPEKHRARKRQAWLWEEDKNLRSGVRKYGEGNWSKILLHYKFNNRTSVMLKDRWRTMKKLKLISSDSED

Data set [2] concerns the target T2, His-TRF1 T358D T358D (Homo sapiens) (UniProt P54274).
T2 sequence: T1 sequence with D273T, T358D

In data set [3] the target is T3, His-TRF1 WT (Homo sapiens) (UniProt P54274).
T3 sequence: T1 sequence with D273T

Positions count from the first letter of the chain named.

“GGGTTAGGGTTAGGGTTAGGGTTAGGGTTAGGGTTAGGGTTAGGGCCCCTC (double strand) [ds (TTAGGG)7 telomeric probe]”: the binding signal in data set [1] and in data set [2] was > 1 fold of WT in each case. Moreover, the binding signal (fold of WT (reference)) in data set [3] came to 1.
